Two molecules from patent US11959134, “Methods of determining nucleic acid structural information” (Bionano Genomics, Inc.) can be followed below.

The target of series [1] is T1, M.BseCI DNA adenine methyltransferase (UniProt P43423 P43423:1-579). The series is described as follows: labeling with Atto532AdoY, 22x enzyme excess over sites, 55 C, 5 h; labeled DNA assembled into single contig aligned to reference. The procedure: A solution (40 ul) of E. coli DNA (500 ng), M.BseCI (22× excess over DNA sites) and Atto532AdoY (40 uM) in 10 mM Tris-HCl, 10 mM EDTA, and 5 mM beta-mercaptoethanol, pH 7.4 were mixed with 4 uL NaOH (0.1M). The solution was incubated for 5 h at 55° C. Proteinase K (1 ul) was added and the solution incubated for 1 h at 37° C. The DNA was dialyzed against 1×TE buffer and stained with YOYO-1 to a final concentration of 3.5-5 ng/ul.
T1 sequence (P43423 whole entry, one chain of several): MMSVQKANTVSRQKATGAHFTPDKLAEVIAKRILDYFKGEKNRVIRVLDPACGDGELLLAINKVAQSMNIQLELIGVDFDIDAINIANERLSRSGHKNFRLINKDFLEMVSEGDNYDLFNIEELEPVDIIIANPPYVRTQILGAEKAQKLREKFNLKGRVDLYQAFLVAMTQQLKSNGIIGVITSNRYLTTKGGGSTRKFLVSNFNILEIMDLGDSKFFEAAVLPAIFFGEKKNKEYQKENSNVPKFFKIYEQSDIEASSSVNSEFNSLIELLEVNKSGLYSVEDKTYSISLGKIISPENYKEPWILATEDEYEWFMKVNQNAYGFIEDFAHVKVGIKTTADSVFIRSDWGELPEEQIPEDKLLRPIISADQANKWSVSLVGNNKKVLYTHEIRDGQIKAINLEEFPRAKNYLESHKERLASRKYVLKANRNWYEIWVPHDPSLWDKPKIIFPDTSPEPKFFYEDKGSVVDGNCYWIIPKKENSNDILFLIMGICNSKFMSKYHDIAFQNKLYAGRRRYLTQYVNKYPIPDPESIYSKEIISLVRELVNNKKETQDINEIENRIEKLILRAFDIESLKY
A freshly prepared solution (4 ul) of 4-nitrobenzoic alcohol (1.4 mM), Trolox (1.4 mM), protocatechuate-3,4-dioxygenase (0.36 uM), protocatechuic acid (50 ug) was mixed with stained E. coli DNA of Example 7, 1× flow buffer and Tris (25 mM) and NaCl (10 mM) were added. The sample was loaded onto an IrysChip™ and imaged using the Irys™ instrument.
The E. coli DNA of Examples 7 and 8 was assembled and compared to a reference genome. The labeled E. coli DNA assembled into a single contig (FIG. 5, right contig) and aligned to a reference contig sequence (FIG. 5, left contig).

Series [2] has as its target T1, M.BseCI DNA adenine methyltransferase. Put plainly: sequence-specific covalent labeling with Atto532AdoY cofactor seen in nanochannels; 285 nM enzyme, 10 mM Tris-HCl, 10 mM EDTA, 5 mM beta-mercaptoethanol, pH 7.4, 55 C, 5 h. The procedure: A solution (40 ul) of 2 uL T7 DNA (500 ng/ul), M.BseCI (285 nM) and Atto532AdoY (40 uM) in 10 mM Tris-HCl, 10 mM EDTA, and 5 mM β-mercaptoethanol, pH 7.4 were mixed with 4 uL NaOH (0.1M). The solution was incubated for 5 h at 55° C. Proteinase K (1 ul) was added and the solution incubated for 1 h at 37° C. DNA was ethanol precipitated and redissolved in 1×TE buffer (10 ul).
For DNA staining of the T7 DNA labeled in Example 5, above, a solution (50 ul) of DNA (10 ng/ul), YOYO-1 (500 nM) in 1× flow buffer was incubated for 4 h at 4° C. Subsequently, a freshly prepared solution (4 ul) of 4-nitrobenzoic alcohol (1.4 mM), Trolox (1.4 mM), protocatechuate-3,4-dioxygenase (0.36 uM), protocatechuic acid (50 ug) was mixed with 10 uL of the stained DNA (above) and was loaded onto an IrysChip™ and imaged using the Irys™ instrument. FIG. 4 represents an example of imaged, labeled T7 DNA molecules.

B1: E. coli genomic DNA containing M.BseCI sites (dsDNA)
DNA 1: ATCGAT
DNA 2: ATCGAT
In the case of B1, the binding result in series [1] is recorded as “binds”.

B2: T7 phage genomic DNA containing three M.BseCI sites (dsDNA)
DNA 1: ATCGAT
DNA 2: ATCGAT
Turning to B2, the binding result in series [2] is recorded as “binds”.
